Assay results taken from patent US20050037969A1 (ARBOR VITA, published 2005).
Ends that are not written are not given here. * marks the point of attachment. Biotin = O=C1N[C@H]2[C@H](CS[C@H]2CCCCC(=O)*)N1

T1: GEF PDZ-GST fusion protein (Homo sapiens (Human), UniProt Q8TEU7 293-400)
T1 construct: The label GEF is not explained in the excerpts
T1 sequence: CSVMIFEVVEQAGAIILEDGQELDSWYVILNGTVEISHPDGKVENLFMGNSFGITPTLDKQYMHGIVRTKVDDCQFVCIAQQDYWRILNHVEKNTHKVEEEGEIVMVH

T2: TAX-IP33 PDZ-GST fusion protein (Homo sapiens (Human), UniProt O14910 103-193)
T2 construct: Order of GST and PDZ part and limits not seen in the excerpts
T2 sequence: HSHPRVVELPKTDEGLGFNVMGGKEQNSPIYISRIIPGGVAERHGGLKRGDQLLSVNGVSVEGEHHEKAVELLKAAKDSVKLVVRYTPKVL

T3: GST-prIL16 fusion protein (PDZ domains 1-2) (Homo sapiens (Human), UniProt Q14005 1111-1324)
T3 construct: also called putative interleukin 16 precursor; not shown: glutathione S-transferase encoded by vector pGEX-3X (Pharmacia)
T3 sequence: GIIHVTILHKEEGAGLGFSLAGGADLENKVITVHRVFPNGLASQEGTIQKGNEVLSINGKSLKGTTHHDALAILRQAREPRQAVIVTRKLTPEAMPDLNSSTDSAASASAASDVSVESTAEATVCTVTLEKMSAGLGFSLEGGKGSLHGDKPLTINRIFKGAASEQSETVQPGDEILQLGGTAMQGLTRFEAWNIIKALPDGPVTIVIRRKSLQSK

T4: SP short PDZ-GST fusion protein (Homo sapiens (Human), UniProt O43464 350-435)
T4 construct: The label SP short is not explained in the excerpts
T4 sequence: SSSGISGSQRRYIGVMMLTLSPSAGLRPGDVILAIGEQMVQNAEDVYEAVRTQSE

T5: GST-KIAA0303 PDZ domain fusion protein (Homo sapiens (Human), UniProt O15021 1138-1228)
T5 construct: also called K303; not shown: glutathione S-transferase encoded by vector pGEX-3X (Pharmacia)
T5 sequence: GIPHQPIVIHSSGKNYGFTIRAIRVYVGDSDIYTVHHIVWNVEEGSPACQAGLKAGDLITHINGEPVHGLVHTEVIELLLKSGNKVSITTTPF

T6: MINT3 PDZ-GST fusion protein
T6 construct: Order of GST and PDZ part and limits not seen in the excerpts
T6 chain: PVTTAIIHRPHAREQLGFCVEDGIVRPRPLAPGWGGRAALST

T7: GST-cytohesin binding protein PDZ domain fusion protein (Homo sapiens (Human), UniProt O60759 74-165)
T7 construct: also called CBP; not shown: glutathione S-transferase encoded by vector pGEX-3X (Pharmacia)
T7 sequence: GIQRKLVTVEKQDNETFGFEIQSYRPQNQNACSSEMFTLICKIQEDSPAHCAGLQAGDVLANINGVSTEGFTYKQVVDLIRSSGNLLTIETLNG

T8: GST-DLG5 (p-dlg) PDZ domain fusion protein (Human, UniProt Q8TDM6 1343-1583)
T8 construct: also called Human discs large protein p-dlg; not shown: glutathione S-transferase encoded by vector pGEX-3X (Pharmacia)
T8 sequence: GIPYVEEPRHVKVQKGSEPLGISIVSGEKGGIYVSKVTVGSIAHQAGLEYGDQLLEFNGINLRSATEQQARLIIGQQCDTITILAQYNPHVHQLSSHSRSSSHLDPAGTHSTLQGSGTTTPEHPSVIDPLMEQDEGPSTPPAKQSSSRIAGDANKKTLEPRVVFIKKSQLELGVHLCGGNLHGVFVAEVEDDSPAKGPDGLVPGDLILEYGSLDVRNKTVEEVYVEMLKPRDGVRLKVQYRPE

T9: GST-LIM protein PDZ domain fusion protein (Human, UniProt Q96HC4 2-85)
T9 construct: also called Human LIM protein; not shown: glutathione S-transferase encoded by vector pGEX-3X (Pharmacia)
T9 sequence: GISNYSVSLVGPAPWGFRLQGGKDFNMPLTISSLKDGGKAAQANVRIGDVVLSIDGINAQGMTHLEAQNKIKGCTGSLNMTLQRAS

T10: K858 PDZ-GST fusion protein (Homo sapiens (Human), UniProt Q8WWI1 1038-1131)
T10 construct: Order of GST and PDZ part and limits not seen in the excerpts
T10 sequence: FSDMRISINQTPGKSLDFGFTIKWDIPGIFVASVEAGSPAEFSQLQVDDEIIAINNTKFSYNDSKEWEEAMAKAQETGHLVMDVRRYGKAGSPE

T11: GST-DVL1 PDZ domain fusion protein (human, UniProt O14640 247-339)
T11 construct: also called human dishevelled segment polarity protein homolog; not shown: glutathione S-transferase encoded by vector pGEX-3X (Pharmacia)
T11 sequence: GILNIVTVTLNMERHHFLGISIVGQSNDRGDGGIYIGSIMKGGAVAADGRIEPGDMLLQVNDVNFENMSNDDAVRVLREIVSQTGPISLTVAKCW

T12: GST-AF6 PDZ domain fusion protein (Homo sapiens (Human), UniProt P55196 1001-1093)
T12 construct: also called af-6 protein; not shown: glutathione S-transferase encoded by vector pGEX-3X (Pharmacia)
T12 sequence: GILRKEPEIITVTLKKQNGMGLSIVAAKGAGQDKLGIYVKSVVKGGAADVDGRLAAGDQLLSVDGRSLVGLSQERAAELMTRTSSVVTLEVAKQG

B1: CD6 C-terminal peptide AA6L, biotinylated (peptide)
peptide: Biotin-SPQPDSTDNDDYDDISAA
B2: CC CKR-4 C-terminal peptide AA44L (peptide)
peptide: Biotin-DTPSSSYTQSTMDHDLHDAL
notes: Only the last four residues are seen in the excerpts
B3: CD49F C-terminal peptide AA12L, biotinylated (peptide)
peptide: Biotin-HKAEIHAQPSDKERLTSDA
notes: also called CD49F (Aform, alpha6)
B4: CC CKR-2 C-terminal peptide AA42L (peptide)
peptide: Biotin-GKGKSIGRAPEASLQDKEGA
notes: as for B2
B5: CDW128B (IL8RB) C-terminal peptide AA29.2L, biotinylated (peptide)
peptide: Biotin-KDSRPSFVGSSSGHTSTTL
notes: also called CDW128E (IL8RB)
B6: CD97 C-terminal peptide AA14L, biotinylated (peptide)
peptide: Biotin-TSGTGHNQTRALRASESGI
notes: also called CD97 (CD55L)
B7: CC CKR-1R C-terminal peptide AA41L (peptide)
peptide: Biotin-LERVSSTSPSTGEHELSAGF
notes: as for B2
B8: CDW128A (IL8RA) C-terminal peptide AA29.1L, biotinylated (peptide)
peptide: Biotin-ARHRVTSYTSSSVNVSSNL

These binders were tested against T1, GEF PDZ-GST fusion protein (assay: A/G assays).

Binder | binding result
B1 | no binding
B2 | no binding
B3 | no binding
B4 | no binding
B5 | no binding
B6 | no binding
B7 | no binding
B8 | no binding

The binders below were run against T2, TAX-IP33 PDZ-GST fusion protein (assay: A/G assays).

Binder | binding result
B1 | no binding
B2 | no binding
B3 | no binding
B4 | no binding
B5 | no binding
B6 | no binding
B7 | no binding
B8 | no binding

The binders below were run against T3, GST-prIL16 fusion protein (PDZ domains …) (assay: A/G assays).

Binder | binding result
B1 | no binding
B2 | no binding
B3 | no binding
B4 | no binding
B5 | no binding
B6 | no binding
B7 | no binding
B8 | no binding

These binders were tested against T4, SP short PDZ-GST fusion protein (assay: A/G assays).

Binder | binding result
B1 | no binding
B2 | no binding
B3 | no binding
B4 | no binding
B5 | no binding
B6 | no binding
B7 | no binding
B8 | no binding

These binders were tested against T5, GST-KIAA0303 PDZ domain fusion protein (assay: A/G assays).

Binder | binding result
B1 | no binding
B2 | no binding
B3 | no binding
B4 | no binding
B5 | no binding
B6 | no binding
B7 | no binding
B8 | no binding

Target: T6, MINT3 PDZ-GST fusion protein
Test: A/G assays

Binder | binding result
B1 | no binding
B2 | no binding
B3 | no binding
B4 | no binding
B5 | no binding
B6 | no binding
B7 | no binding
B8 | no binding

These binders were tested against T7, GST-cytohesin binding protein PDZ … (assay: A/G assays).

Binder | binding result
B1 | no binding
B2 | no binding
B3 | no binding
B4 | no binding
B5 | no binding
B6 | no binding
B7 | no binding
B8 | no binding

Each binder was assayed against T13, GST-TIAM1 PDZ domain fusion protein (Homo sapiens (Human), UniProt Q13009 845-931) (assay: A/G assays).
T13 construct: also called TLAM1; T-lymphoma invasion and metastasis inducing protein 1; not shown: glutathione S-transferase encoded by vector pGEX-3X (Pharmacia)
T13 sequence (Q13009 other isoform, or with tags, fused parts or gaps): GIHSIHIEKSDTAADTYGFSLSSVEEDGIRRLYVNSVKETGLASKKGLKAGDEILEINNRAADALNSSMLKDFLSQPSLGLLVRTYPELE

Binder | binding result
B1 | no binding
B2 | no binding
B3 | no binding
B4 | no binding
B5 | no binding
B6 | no binding
B7 | no binding
B8 | no binding

These binders were tested against T14, NSP PDZ-GST fusion protein (Homo sapiens (Human), UniProt Q92743 370-466) (assay: A/G assays).
T14 construct: The label NSP is not explained in the excerpts
T14 sequence (Q92743 other isoform, or with tags, fused parts or gaps limits assumed): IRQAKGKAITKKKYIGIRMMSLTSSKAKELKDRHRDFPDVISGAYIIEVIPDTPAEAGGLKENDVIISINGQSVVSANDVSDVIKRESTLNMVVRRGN

Binder | binding result
B1 | no binding
B2 | no binding
B3 | no binding
B4 | no binding
B5 | no binding
B6 | no binding
B7 | no binding
B8 | no binding

These binders were tested against T8, GST-DLG5 (p-dlg) PDZ domain fusion … (assay: A/G assays).

Binder | binding result
B1 | no binding
B2 | no binding
B3 | no binding
B4 | no binding
B5 | no binding
B6 | no binding
B7 | no binding
B8 | no binding

These binders were tested against T9, GST-LIM protein PDZ domain fusion … (assay: A/G assays).

Binder | binding result
B1 | no binding
B2 | no binding
B3 | no binding
B4 | no binding
B5 | no binding
B6 | no binding
B7 | no binding
B8 | no binding

The binders below were run against T10, K858 PDZ-GST fusion protein (assay: A/G assays).

Binder | binding result
B1 | no binding
B2 | no binding
B3 | no binding
B4 | no binding
B5 | no binding
B6 | no binding
B7 | no binding
B8 | no binding

The binders below were run against T15, PICK1 PDZ-GST fusion protein (Bos taurus (Bovine), UniProt Q2T9M1 17-105) (assay: A/G assays).
T15 construct: Order of GST and PDZ part and limits not seen in the excerpts
T15 sequence (Q2T9M1 other isoform, or with tags, fused parts or gaps limits assumed): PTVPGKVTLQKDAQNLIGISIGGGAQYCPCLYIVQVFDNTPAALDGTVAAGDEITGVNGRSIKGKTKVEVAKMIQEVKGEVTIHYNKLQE

Binder | binding result
B1 | no binding
B2 | no binding
B3 | no binding
B4 | no binding
B5 | no binding
B6 | no binding
B7 | no binding
B8 | no binding

These binders were tested against T11, GST-DVL1 PDZ domain fusion protein (assay: A/G assays).

Binder | binding result
B1 | no binding
B2 | no binding
B3 | no binding
B4 | no binding
B5 | no binding
B6 | no binding
B7 | no binding
B8 | no binding

The binders below were run against T16, K316 PDZ-GST fusion protein (Homo sapiens (Human), UniProt Q14CM0 72-159) (assay: A/G assays).
T16 construct: Order of GST and PDZ part and limits not seen in the excerpts
T16 sequence (Q14CM0 72-159 limits assumed): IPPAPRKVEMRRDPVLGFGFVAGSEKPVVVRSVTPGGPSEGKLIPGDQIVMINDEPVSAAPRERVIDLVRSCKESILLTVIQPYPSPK

Binder | binding result
B1 | no binding
B2 | no binding
B3 | no binding
B4 | no binding
B5 | no binding
B6 | no binding
B7 | no binding
B8 | no binding

These binders were tested against T12, GST-AF6 PDZ domain fusion protein (assay: A/G assays).

Binder | binding result
B1 | no binding
B2 | no binding
B3 | no binding
B4 | no binding
B5 | no binding
B6 | no binding
B7 | no binding
B8 | no binding
